Paper PMC3146532, “Multiple ATR-Chk1 Pathway Proteins Preferentially Associate with Checkpoint-Inducing DNA Substrates”

Key:
RPA (heterotrimer) = RPA (heterotrimer) (UniProt P27694;P15927;P35244 1-616;1-270;1-121); experiment: pull-down; up to 10-fold more than dsDNA; 10 mM Tris pH 7.4, 50 mM NaCl (oligo DNA) or 100 mM NaCl (plasmid; 200/300 mM for TopBP1 salt series), 10 ug/ml BSA, 10% glycerol, 0.01% NP-40, room temperature, 30 min; bead pull-down with immunoblot; details: protein: recombinant, copies: 1;1;1
FAAP24-His = target: T1, FAAP24-His (UniProt Q9BTP7 1-215); experiment: pull-down; 10 mM Tris pH 7.4, 50 mM NaCl (oligo DNA) or 100 mM NaCl (plasmid; 200/300 mM for TopBP1 salt series), 10 ug/ml BSA, 10% glycerol, 0.01% NP-40, room temperature, 30 min; bead pull-down with immunoblot; details: protein: recombinant, tags: His (pET21b)
T1 sequence: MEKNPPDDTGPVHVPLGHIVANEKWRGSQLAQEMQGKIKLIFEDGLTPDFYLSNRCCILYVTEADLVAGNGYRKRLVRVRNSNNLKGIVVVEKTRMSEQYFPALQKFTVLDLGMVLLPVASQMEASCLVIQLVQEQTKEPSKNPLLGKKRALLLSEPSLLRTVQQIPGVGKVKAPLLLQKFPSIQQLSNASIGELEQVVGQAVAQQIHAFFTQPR

His-Chk1 = target: T2, His-Chk1 (UniProt O14757 1-476); experiment: as above; details: protein: recombinant, tags: His
T2 sequence: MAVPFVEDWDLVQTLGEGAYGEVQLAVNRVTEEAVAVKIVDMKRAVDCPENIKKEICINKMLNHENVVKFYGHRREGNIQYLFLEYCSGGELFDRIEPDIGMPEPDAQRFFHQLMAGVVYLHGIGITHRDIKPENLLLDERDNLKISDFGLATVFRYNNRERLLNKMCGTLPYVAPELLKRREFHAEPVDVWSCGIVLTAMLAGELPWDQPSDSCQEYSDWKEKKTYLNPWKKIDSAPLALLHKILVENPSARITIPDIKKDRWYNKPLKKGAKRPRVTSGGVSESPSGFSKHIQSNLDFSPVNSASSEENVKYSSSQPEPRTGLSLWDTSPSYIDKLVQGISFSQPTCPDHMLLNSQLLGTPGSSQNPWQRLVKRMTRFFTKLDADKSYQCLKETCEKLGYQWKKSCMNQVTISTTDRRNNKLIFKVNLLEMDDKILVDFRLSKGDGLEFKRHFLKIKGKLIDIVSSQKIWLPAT

FLAG-ATRIP = target: T3, FLAG-ATRIP (UniProt Q8WXE1 1-791); experiment: pull-down; without RPA; 10 mM Tris pH 7.4, 50 mM NaCl (oligo DNA) or 100 mM NaCl (plasmid; 200/300 mM for TopBP1 salt series), 10 ug/ml BSA, 10% glycerol, 0.01% NP-40, room temperature, 30 min; bead pull-down with immunoblot; details: protein: recombinant; tags: FLAG; label: 5'-biotin on Oligo1; fork 1:2; 31 bp duplex, two 19 nt unpaired arms (3' of Oligo1, 5' of Oligo2)
T3 sequence: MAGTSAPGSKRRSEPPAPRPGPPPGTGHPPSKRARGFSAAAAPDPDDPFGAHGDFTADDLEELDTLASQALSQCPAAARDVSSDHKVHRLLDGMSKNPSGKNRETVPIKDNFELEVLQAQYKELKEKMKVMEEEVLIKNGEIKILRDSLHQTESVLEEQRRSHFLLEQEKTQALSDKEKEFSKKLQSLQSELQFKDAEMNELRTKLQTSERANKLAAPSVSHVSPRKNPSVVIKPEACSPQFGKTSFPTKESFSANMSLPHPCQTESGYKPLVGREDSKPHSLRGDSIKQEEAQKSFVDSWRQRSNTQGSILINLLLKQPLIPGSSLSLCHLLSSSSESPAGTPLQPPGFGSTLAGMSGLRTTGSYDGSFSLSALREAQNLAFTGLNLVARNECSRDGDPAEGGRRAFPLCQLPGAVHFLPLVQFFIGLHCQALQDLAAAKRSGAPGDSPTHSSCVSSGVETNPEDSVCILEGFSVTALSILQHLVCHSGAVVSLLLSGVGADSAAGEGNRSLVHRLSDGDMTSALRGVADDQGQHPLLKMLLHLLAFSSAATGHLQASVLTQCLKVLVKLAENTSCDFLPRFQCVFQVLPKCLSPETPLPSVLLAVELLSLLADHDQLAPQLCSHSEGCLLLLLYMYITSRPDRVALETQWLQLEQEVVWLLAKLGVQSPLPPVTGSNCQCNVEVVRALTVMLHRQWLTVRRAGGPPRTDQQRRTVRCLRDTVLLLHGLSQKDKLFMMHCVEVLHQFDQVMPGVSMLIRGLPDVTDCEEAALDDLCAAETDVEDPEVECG

Tipin-His = target: T4, Tipin-His (UniProt Q9BVW5 1-301); experiment: pull-down; >10-fold over ssDNA or dsDNA at highest protein; 10 mM Tris pH 7.4, 50 mM NaCl (oligo DNA) or 100 mM NaCl (plasmid; 200/300 mM for TopBP1 salt series), 10 ug/ml BSA, 10% glycerol, 0.01% NP-40, room temperature, 30 min; bead pull-down with immunoblot; details: protein: recombinant; tags: His; label: 5'-biotin on Oligo1; fork 1:2; 31 bp duplex, two 19 nt unpaired arms (3' of Oligo1, 5' of Oligo2)
T4 sequence: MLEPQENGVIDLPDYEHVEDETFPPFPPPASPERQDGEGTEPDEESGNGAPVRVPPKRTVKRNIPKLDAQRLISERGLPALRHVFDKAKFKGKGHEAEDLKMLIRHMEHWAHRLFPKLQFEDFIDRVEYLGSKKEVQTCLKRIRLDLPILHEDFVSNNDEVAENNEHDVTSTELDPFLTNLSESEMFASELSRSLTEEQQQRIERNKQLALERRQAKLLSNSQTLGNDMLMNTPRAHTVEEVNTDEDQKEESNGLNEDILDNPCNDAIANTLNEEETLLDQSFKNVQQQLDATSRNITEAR

FLAG-Timeless = FLAG-Timeless (UniProt Q9UNS1 1-1208); experiment: pull-down; 10 mM Tris pH 7.4, 50 mM NaCl (oligo DNA) or 100 mM NaCl (plasmid; 200/300 mM for TopBP1 salt series), 10 ug/ml BSA, 10% glycerol, 0.01% NP-40, room temperature, 30 min; bead pull-down with immunoblot; details: protein: recombinant; tags: FLAG; label: 5'-biotin on Oligo1; fork 1:2; 31 bp duplex, two 19 nt unpaired arms (3' of Oligo1, 5' of Oligo2)
[1] = target: T5, 9-1-1 complex (FLAG-Rad9-Hus1-Rad1) (UniProt Q99638;O60921;O60671 1-391;1-280;1-282); experiment: as above; details: protein: recombinant; tags: FLAG on Rad9; copies: 1;1;1; label: 5'-biotin on Oligo1; fork 1:2; 31 bp duplex, two 19 nt unpaired arms (3' of Oligo1, 5' of Oligo2)
T5 sequence 1: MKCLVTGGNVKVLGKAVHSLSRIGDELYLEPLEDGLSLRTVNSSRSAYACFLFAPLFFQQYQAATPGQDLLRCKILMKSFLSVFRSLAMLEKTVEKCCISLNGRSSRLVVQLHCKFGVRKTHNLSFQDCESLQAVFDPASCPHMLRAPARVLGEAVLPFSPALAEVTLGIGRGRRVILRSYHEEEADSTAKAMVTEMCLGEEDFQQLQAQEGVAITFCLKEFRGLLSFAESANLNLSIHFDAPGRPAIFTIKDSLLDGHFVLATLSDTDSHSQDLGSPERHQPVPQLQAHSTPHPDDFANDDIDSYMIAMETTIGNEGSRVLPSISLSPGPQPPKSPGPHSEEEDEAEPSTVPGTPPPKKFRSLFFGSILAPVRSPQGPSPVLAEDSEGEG
T5 sequence 2: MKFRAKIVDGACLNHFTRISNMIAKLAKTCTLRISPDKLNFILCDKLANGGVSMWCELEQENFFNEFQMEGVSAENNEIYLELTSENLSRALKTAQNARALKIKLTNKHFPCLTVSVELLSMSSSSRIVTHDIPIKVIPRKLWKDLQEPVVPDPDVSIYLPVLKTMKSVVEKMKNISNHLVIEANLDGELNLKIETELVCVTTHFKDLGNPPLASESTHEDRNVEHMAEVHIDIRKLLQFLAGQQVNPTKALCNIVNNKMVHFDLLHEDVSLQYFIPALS
T5 sequence 3: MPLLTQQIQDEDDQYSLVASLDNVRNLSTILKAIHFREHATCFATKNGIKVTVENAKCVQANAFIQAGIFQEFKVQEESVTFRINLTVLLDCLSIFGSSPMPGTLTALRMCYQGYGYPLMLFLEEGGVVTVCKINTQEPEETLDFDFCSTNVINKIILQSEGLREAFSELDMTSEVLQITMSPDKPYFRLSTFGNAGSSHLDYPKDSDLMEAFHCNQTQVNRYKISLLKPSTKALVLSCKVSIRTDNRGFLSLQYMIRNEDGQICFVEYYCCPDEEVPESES

FLAG-Claspin = FLAG-Claspin (UniProt Q9HAW4 1-1339); experiment: as above; details: protein: recombinant; tags: FLAG; label: 5'-biotin on Oligo1; fork 1:2; 31 bp duplex, two 19 nt unpaired arms (3' of Oligo1, 5' of Oligo2)
FLAG-Timeless;Tipin-His = FLAG-Timeless;Tipin-His (human?;human?, UniProt Q9UNS1;Q9BVW5 1-1208;1-301, |); experiment: as above; details: protein: recombinant;recombinant; tags: FLAG;His; copies: 1;1; label: 5'-biotin on Oligo1; fork 1:2; 31 bp duplex, two 19 nt unpaired arms (3' of Oligo1, 5' of Oligo2)
MBP-XPA = MBP-XPA (UniProt P23025 1-273); experiment: as above; details: protein: recombinant; tags: MBP; label: 5'-biotin on Oligo1; fork 1:2; 31 bp duplex, two 19 nt unpaired arms (3' of Oligo1, 5' of Oligo2)
[2] = label: 5'-biotin on Oligo1, fork 1:2, 31 bp duplex, two 19 nt unpaired arms (3' of Oligo1, 5' of Oligo2)

Measured: binding result

RPA (heterotrimer), sequence (P27694 whole entry, chain 1 of 3, the tested form may be a part): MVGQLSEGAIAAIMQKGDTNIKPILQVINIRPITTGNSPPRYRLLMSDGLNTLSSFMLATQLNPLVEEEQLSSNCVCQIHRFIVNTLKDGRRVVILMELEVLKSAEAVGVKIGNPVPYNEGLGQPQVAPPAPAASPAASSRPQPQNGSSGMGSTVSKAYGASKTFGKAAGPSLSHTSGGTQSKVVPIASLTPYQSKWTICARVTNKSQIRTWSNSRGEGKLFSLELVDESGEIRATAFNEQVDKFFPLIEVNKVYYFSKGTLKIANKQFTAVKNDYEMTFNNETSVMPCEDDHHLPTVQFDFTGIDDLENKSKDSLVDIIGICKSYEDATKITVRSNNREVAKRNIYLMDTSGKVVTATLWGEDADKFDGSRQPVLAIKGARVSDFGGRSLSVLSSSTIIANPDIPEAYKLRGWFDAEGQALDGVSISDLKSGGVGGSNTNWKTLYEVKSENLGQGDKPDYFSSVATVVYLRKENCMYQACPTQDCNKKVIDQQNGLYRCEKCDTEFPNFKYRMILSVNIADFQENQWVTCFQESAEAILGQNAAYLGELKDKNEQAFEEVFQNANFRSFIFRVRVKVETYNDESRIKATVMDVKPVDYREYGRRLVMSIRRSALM
RPA (heterotrimer), sequence (P15927 whole entry, chain 2 of 3, the tested form may be a part): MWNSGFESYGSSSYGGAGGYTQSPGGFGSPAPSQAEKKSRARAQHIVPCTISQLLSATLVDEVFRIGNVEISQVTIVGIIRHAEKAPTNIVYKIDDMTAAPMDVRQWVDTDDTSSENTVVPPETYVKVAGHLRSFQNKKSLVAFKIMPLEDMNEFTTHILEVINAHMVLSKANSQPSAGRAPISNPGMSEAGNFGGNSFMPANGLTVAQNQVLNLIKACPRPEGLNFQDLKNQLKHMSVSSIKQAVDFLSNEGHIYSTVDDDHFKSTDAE
RPA (heterotrimer), sequence (P35244 whole entry, chain 3 of 3, the tested form may be a part): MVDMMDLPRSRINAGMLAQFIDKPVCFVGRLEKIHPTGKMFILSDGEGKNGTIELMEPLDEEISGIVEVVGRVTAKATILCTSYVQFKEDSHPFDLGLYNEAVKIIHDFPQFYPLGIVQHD
MBP-XPA, sequence (P23025 whole entry): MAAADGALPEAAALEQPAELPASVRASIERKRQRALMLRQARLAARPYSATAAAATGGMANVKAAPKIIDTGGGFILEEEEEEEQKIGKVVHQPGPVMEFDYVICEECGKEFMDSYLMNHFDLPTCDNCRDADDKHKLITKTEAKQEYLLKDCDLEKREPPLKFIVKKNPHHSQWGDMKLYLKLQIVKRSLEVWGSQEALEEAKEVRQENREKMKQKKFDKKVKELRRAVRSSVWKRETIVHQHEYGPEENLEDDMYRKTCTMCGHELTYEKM
FLAG-Timeless;Tipin-His, sequence (Q9UNS1 whole entry, one chain of several): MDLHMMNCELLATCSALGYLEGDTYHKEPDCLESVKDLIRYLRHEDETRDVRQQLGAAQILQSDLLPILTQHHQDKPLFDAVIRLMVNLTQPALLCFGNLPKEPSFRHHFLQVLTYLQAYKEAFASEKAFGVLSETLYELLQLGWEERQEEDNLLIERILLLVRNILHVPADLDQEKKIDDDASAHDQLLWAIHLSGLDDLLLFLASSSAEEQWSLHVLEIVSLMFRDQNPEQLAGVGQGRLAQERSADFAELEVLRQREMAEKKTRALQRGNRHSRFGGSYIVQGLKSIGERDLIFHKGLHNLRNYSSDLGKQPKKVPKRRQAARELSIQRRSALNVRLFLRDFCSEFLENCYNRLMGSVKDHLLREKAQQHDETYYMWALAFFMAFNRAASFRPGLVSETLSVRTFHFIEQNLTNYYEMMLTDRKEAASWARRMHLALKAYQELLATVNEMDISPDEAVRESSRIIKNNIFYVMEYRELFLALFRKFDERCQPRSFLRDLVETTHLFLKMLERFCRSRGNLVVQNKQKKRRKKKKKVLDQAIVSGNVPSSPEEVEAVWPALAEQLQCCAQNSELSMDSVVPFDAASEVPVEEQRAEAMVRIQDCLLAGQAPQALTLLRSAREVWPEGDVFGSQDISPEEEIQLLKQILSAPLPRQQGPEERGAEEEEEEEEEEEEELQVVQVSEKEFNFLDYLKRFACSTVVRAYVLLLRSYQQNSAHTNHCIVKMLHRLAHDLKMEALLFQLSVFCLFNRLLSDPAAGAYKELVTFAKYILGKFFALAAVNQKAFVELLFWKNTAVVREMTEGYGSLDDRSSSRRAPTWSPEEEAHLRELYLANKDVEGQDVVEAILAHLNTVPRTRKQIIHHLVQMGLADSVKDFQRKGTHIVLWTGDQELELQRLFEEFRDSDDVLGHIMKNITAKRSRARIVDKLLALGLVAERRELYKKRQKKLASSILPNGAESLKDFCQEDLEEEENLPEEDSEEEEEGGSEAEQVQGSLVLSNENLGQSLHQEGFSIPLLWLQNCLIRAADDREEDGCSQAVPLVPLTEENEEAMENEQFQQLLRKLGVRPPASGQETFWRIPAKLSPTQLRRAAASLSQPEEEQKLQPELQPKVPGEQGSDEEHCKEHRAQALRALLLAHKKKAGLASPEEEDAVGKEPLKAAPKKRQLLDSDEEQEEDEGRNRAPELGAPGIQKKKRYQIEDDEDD
FLAG-Timeless, sequence (Q9UNS1 whole entry): as the sequence (Q9UNS1 whole entry, one chain of several) above
FLAG-Claspin, sequence (Q9HAW4 whole entry): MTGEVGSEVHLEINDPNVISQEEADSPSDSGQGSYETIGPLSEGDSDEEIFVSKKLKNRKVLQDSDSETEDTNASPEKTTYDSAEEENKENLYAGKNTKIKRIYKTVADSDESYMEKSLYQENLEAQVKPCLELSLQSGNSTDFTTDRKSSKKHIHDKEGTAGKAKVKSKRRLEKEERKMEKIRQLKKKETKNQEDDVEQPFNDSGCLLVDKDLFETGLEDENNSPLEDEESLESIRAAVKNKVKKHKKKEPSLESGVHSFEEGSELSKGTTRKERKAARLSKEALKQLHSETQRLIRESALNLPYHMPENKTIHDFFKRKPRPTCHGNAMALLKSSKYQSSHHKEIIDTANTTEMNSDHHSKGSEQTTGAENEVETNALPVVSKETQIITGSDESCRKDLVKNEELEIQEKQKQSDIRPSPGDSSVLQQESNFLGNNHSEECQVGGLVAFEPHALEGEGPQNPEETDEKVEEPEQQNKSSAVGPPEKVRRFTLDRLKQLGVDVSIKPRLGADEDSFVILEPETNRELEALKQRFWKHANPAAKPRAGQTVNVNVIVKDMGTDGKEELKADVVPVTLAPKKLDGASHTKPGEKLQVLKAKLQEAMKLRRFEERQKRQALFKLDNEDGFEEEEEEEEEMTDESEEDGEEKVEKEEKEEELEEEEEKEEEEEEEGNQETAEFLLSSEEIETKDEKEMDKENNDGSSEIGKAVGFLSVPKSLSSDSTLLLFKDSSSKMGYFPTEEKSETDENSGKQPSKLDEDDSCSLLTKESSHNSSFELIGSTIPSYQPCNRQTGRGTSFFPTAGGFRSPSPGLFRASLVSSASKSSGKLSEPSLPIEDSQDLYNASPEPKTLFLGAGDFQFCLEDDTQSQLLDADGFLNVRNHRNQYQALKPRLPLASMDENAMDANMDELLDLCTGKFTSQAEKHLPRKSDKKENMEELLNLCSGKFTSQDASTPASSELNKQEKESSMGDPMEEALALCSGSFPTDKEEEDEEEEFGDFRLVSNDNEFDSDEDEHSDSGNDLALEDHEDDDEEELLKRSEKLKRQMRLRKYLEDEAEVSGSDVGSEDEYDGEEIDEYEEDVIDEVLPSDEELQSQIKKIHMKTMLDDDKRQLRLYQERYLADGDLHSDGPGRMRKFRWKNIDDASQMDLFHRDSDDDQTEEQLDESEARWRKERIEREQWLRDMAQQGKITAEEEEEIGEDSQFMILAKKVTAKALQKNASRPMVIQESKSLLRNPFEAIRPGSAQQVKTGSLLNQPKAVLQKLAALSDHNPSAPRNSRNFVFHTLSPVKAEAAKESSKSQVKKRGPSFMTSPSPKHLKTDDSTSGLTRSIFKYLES

B1: ssDNA 50-mer (Oligo1) (ssDNA)
DNA: GACGCTGCCGAATTCTGGCTTGCTAGGACATCTTTGCCCACGTTGACCCG
binds: RPA (heterotrimer); label: 5'-biotin | FAAP24-His; label: 5'-biotin | His-Chk1; label: 5'-biotin

B2: fork DNA (Oligo1/Oligo2) (mixed)
DNA 1: B1 DNA
DNA 2: GCGATAGTCTCTAGACAGCATGTCCTAGCAAGCCAGAATTCGGCAGCGTC
binds: FLAG-ATRIP | RPA (heterotrimer); [2] | Tipin-His | FLAG-Timeless | [1] | FLAG-Claspin | FLAG-Timeless;Tipin-His | FAAP24-His; [2] | His-Chk1; [2] | MBP-XPA
